From publication PMC12540671
Read-outs that look alike come from different tables or passages of the source.

Key:
[1] = molecular target: ATM (ataxia-telangiectasia mutated) kinase (mouse (endogenous in cerebellar tissue)) (UniProt Q62388); test: non-reducing SDS-PAGE and immunoblot; ex vivo mouse cerebellar tissue culture exposed to glargine (100 nM, 2 h); proteins denatured in 2% SDS without boiling, separated under nonreducing conditions at 4 °C; the NOX4 antagonist GLX7013114 or shRNA impeded the insulin-induced dimerization
[2] = molecular target: PKM2 (pyruvate kinase M2) (mouse (endogenous in cerebellar tissue)) (UniProt P52480); test: cross-linking; 5 mM disuccinimidyl suberate (DSS), 30 min, room temperature, quenched with Tris, then immunoblot for PKM2; mouse cerebellar tissue of Atm-WT and Atm-KO, also with TEPP-46
[3] = molecular target: PKM2 (pyruvate kinase M2) (mouse (endogenous in cerebellar tissue)) (UniProt P52480); test: as above; remark: listed apart in the source

Sequence of PKM2 (pyruvate kinase M2), P52480 1-531 (enzyme; other documents disagree on this pair) (P52480 whole entry): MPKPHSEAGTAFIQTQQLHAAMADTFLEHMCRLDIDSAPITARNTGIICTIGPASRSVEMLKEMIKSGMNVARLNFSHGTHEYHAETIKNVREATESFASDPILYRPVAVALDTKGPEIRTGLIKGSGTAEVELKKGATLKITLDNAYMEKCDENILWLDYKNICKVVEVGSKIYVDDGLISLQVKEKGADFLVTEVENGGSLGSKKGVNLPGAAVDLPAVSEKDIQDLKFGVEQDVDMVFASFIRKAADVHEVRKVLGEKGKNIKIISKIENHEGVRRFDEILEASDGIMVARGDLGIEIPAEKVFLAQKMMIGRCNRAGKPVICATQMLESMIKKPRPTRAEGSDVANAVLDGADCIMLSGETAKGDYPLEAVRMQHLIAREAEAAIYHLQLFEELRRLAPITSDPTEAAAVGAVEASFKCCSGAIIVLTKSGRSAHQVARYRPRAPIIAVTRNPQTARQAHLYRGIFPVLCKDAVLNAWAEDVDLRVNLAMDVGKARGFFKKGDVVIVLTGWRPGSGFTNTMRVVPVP

| Substance | stoichiometry N [1] | stoichiometry N [2] | stoichiometry N [3] |
| --- | --- | --- | --- |
| ATM (ataxia-telangiectasia mutated) kinase, Q62388 1-3066 | 2 |  |  |
| PKM2 (pyruvate kinase M2), P52480 1-531 (enzyme; other documents disagree on this pair) |  | 2 | 4 |
